In publication PMC10464462:

Target: His-E-cadherin fusion protein (UniProt P12830)
Assay: MST; RED-NHS-labelled His-E-cadherin at constant concentration (1 µM) with 2-fold serial dilutions of GST-KRT18 in MST-optimized buffer; 15 min at room temperature; Monolith NT.115; 20 and 40% MST power

UniProt P12830, sequence (P12830 155-882): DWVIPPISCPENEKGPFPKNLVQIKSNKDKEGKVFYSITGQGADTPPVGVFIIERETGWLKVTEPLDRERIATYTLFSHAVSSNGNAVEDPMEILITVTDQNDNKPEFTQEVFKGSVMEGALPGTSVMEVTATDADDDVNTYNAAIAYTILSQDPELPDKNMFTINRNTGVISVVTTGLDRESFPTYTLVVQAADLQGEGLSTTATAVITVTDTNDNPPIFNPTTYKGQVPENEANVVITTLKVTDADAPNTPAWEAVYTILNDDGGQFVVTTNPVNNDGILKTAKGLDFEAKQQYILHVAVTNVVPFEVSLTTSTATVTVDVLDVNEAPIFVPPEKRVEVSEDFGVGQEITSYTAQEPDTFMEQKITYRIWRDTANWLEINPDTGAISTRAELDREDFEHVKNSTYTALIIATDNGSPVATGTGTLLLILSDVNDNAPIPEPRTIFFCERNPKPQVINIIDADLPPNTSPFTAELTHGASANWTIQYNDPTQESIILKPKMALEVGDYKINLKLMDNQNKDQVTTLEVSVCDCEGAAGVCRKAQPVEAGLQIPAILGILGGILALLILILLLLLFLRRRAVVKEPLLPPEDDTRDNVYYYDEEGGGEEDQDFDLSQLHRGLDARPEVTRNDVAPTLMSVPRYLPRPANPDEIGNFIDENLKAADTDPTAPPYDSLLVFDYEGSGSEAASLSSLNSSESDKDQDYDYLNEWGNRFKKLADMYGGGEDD

B1: GST-KRT18 fusion protein (natural protein)
chain: MSFTTRSTFSTNYRSLGSVQAPSYGARPVSSAASVYAGAGGSGSRISVSRSTSFRGGMGSGGLATGIAGGLAGMGGIQNEKETMQSLNDRLASYLDRVRSLETENRRLESKIREHLEKKGPQVRDWSHYFKIIEDLRAQIFANTVDNARIVLQIDNARLAADDFRVKYETELAMRQSVENDIHGLRKVIDDTNITRLQLETEIEALKEELLFMKKNHEEEVKGLQAQIASSGLTVEVDAPKSQDLAKIMADIRAQYDELARKNREELDKYWSQQIEESTTVVTTQSAEVGAAETTLTELRRTVQSLEIDLDSMRNLKASLENSLREVEARYALQMEQLNGILLHLESELAQTRAEGQRQAQEYEALLNIKVKLEAEIATYRRLLEDGEDFNLGDALDSSNSMQTIQKTTTRRIVDGKVVSETNDTKVLRH
  Kd: 5.6 µM
